Test [1] has as its target TIE-2 receptor on ABAE (Adult Bovine Arterial Endothelial) cells (bovine, UniProt Q06807 23-1125). Description: cell-based or functional assay.
The target in test [2] is T1, EHK-1 receptorbody (rEHK-1 ecto/hIgG1 Fc) (rat; human, UniProt P54757 27-575).
T1 construct: extracellular domain; also called EHK-1 RB; soluble EHK-1 RB
Description: SPR (BIAcore), conditioned medium preincubated with soluble receptorbody before injection over immobilised TIE-2 RB. In general terms: In SPR one partner is held on a chip, and binding of the other changes the refractive index at the surface.

Test [3] deals with T2, rat TIE-2 receptorbody (entire extracellular portion of the rat TIE-2 receptor fused to human IgG1 Fc) (rat; human, UniProt A0ABK0L6J5 19-740).
T2 construct: extracellular domain; also called TIE-2 RB; r TIE-2 ecto/h IgG1 Fc; not shown: human immunoglobulin gamma-1 constant region (IgG1 Fc), from the hinge region to the carboxy-terminus
Description: SPR (BIAcore), >50x concentrated conditioned medium over immobilised TIE-2 RB. As to the method: Purified TIE-2 RB was covalently coupled through primary amines to the carboxymethyl dextran layer of a CM5 research grade sensor chip (Pharmacia Biosensor; Piscataway, N.J.). The sensor chip surface was activated using a mixture of N-hydroxysuccinimide (NHS) and N-ethyl-N'-(3-dimethylaminopropyl)carbodiimide (EDC), followed by immobilization of TIE-2 RB (25 µg/mL, pH 4.5) and deactivation of unreacted sites with 1.0 M ethanolamine (pH 8.5). A negative control surface of the EHK-1 receptorbody was prepared in a similar manner.
The running buffer used in the system was HBS (10 mM Hepes, 3.4 mM EDTA, 150 mM NaCl, 0.005% P20 surfactant, pH 7.4). […] Aliquots of 40 µL were injected across the immobilized surface (either TIE-2 or EHK-1) at a flow rate of 5 µL/min and the receptor binding was monitored for 8 min. The binding activity (resonance units, RU) was measured as the difference between a baseline value determined 30 s prior to the sample injection and a measurement taken at 30 s post-injection. […]
The instrument noise level is 20 RU; therefore, any binding activity with a signal above 20 RU may be interpreted as a real interaction with the receptor. […] For the same samples assayed on a EHK-1 RB immobilized surface, the measured activities were less than 35 RU. […]

T1 sequence (P54757 27-575): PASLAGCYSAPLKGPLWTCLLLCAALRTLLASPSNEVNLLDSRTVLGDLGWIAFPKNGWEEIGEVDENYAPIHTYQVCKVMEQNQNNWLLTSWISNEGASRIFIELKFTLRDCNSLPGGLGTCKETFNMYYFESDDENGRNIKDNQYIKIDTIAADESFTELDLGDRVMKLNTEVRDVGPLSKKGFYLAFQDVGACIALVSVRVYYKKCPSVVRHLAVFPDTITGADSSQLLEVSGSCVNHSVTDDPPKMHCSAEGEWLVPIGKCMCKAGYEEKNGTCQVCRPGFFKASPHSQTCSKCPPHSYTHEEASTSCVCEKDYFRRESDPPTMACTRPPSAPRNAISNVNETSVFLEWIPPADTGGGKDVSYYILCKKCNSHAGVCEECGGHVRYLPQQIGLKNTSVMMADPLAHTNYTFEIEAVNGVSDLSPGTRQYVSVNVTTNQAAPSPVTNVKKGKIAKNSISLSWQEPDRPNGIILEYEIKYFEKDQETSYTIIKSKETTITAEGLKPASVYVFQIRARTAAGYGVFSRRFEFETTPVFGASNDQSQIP
TIE-2 receptor on ABAE (Adult Bovine Arterial Endothelial) cells, sequence (Q06807 23-1125): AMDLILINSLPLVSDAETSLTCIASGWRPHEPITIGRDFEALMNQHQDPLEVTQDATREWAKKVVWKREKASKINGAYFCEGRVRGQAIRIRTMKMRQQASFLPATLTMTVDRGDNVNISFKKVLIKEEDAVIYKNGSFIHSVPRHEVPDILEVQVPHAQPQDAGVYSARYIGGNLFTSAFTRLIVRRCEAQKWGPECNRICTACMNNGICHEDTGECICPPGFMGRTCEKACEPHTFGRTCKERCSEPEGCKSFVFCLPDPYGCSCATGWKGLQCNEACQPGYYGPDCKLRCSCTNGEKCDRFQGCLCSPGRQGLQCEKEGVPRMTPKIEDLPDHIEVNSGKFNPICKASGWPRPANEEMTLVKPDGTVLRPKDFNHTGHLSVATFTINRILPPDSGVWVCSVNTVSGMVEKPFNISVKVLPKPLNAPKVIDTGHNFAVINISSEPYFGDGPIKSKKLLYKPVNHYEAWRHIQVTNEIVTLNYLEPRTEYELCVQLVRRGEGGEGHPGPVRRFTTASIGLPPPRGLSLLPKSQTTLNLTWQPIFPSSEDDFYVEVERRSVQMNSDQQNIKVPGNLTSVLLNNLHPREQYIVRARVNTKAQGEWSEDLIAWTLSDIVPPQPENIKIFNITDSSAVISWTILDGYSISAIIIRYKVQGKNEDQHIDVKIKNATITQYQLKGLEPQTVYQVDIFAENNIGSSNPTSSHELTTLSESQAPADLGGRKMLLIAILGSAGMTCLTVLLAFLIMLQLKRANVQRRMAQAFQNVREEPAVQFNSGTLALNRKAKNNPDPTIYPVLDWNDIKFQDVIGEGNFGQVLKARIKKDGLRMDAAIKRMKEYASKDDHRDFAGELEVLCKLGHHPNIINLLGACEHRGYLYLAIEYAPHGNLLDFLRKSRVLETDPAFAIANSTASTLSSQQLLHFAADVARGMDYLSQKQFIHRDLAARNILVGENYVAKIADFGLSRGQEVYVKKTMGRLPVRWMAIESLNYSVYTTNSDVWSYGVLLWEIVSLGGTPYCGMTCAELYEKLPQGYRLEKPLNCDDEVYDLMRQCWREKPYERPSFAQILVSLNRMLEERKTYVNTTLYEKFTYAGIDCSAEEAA

B1: TIE-2 ligand in C2C12-ras conditioned medium (ligand, mouse, UniProt O08538 20-498, looked up)
chain: SNQRRNPENGGRRYNRIQHGQCAYTFILPEHDGNCRESATEQYNTNALQRDAPHVEPDFSSQKLQHLEHVMENYTQWLQKLENYIVENMKSEMAQIQQNAVQNHTATMLEIGTSLLSQTAEQTRKLTDVETQVLNQTSRLEIQLLENSLSTYKLEKQLLQQTNEILKIHEKNSLLEHKILEMEGKHKEELDTLKEEKENLQGLVSRQTFIIQELEKQLSRATNNNSILQKQQLELMDTVHNLISLCTKEGVLLKGGKREEEKPFRDCADVYQAGFNKSGIYTIYFNNMPEPKKVFCNMDVNGGGWTVIQHREDGSLDFQRGWKEYKMGFGNPSGEYWLGNEFIFAITSQRQYMLRIELMDWEGNRAYSQYDRFHIGNEKQNYRLYLKGHTGTAGKQSSLILHGADFSTKDADNDNCMCKCALMLTGGWWFDACGPSNLNGMFYTAGQNHGKLNGIKWHYFKGPSYSLRSTTMMIRPLDF
notes: Unpurified activity in concentrated conditioned medium; also called C2C12-ras 10xCCM
Consider B1, for which, in test [1], the “TIE-2 tyrosine phosphorylation in ABAE cells (immunoprecipitation and Western blot)” value came to 100 fold. In test [2], the binding result is listed as “no binding (tested: excess)”. Also, the “fold enhancement over background of the TIE-2 specific binding signal” value in test [3] was determined as 4 fold.

These data come from US7063965 (Regeneron, dated 2006).
